In patent US10786550B2, “Blockade of CCL18 signaling via CCR6 as a therapeutic option in treating interstitial lung disease” (UNIVERSITÄTSKLINIKUM FREIBURG, priority 2010, dated 2020):
“Also recorded” adds a separate entry of the source. Blank lines part the entries; values can stand above or below the molecule they belong to.

How the values were obtained:
[1] = system: soluble CCR6 (sCCR6); assay: Blocking of free soluble CCR6 detection by ELISA; assay type: binding, human; settings: ligand 100 ng/ml, 1 h
Experimental: Sera were diluted with an equal volume of PBS/BSA (1% bovine serum albumin, Sigma, Deisenhofen, Germany) either without any additives or containing CCL18 or CCL20 (both PeproTech, Hamburg, Germany; 100 ng/ml each). The diluted sera were then incubated for 1 h at 37° C. and subsequently measured by ELISA.
The sCCR6 ELISA described in Example 8 uses a monoclonal anti-CCR6 antibody as a capture antibody bound at the plate and a biotin-conjugated polyclonal anti-CCR6 antibody as a detection antibody. Most of the monoclonal anti CCR6 antibodies are directed against the N-terminal part of the receptor bearing the ligand binding site. In order to test whether the antibody recognition site of the sCCR6 molecule in sera from fibrotic patients might be covered with the ligand because of the high abundance of CCL18 in these sera, sera from healthy volunteers were incubated with 100 ng/ml of CCL18 or CCL20, respectively and sCCR6 was measured in blocked and unblocked sera by ELISA. Addition of these CCR6 ligands leads to a marked reduction of the sCCR6 signal (FIG. 20).

[2] = molecular target: T1, CCR6 (Homo sapiens, UniProt P51684); assay: Inhibition of CCL18-induced CCR6 down-regulation on PBMNC/lymphocytes (FACS); assay type: cell-based; parameters: endogenous in cells; host or cells: freshly isolated human peripheral blood mononuclear cells; settings: for CCL18 induced down-regulation of CCR6 expression in presence of inhibitor: CCL18 10 ng/ml + inhibitor 100 ng/ml, FACS
T1 sequence (P51684 1-374): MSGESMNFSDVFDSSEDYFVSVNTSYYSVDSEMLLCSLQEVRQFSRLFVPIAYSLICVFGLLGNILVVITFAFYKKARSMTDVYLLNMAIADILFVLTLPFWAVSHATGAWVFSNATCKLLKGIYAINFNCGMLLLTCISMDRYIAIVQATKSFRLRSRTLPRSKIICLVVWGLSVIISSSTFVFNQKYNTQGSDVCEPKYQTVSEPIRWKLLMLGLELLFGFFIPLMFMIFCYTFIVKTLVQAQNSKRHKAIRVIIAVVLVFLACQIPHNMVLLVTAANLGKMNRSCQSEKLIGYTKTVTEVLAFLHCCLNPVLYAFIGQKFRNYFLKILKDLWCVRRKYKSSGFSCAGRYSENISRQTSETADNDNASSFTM
Experimental: Freshly isolated mononuclear cells were incubated for 20 minutes with 10 ng/ml of CCL18, 100 ng/ml of the inhibitor peptide PS-AU-105 (polypeptide according to SEQ ID NO.: 9), a combination of both or were left untreated. The incubation was performed in RPMI1640 with 10% fetal calf serum and 100 U/ml Streptomycin/Penicillin at 37° C. After the incubation, the cells were centrifugated and the supernatant was discarded. The cells were fixed with 4% paraformaldehyde for 5 minutes on ice and washed twice in PBS containing 1% FCS. After fixation the cells were stained using a fluorescein-conjugated antibody against CCR6 (R&D systems, Wiesbaden, FRG) and analyzed by flow cytometry (FACScalibur and Quantiquest; both Becton Dickinson, Franklin Lakes, USA).

[3] = system: RLE-6TN; assay: EMT of rat alveolar epithelial cell line RLE-6TN; assay type: cell-based; settings: 6 days
Experimental: (§1) If not otherwise mentioned cells were stimulated with 10 ng/ml human recombinant CCL18, 2.5 ng/ml TGFβ with or without additional 1 ng/ml TNFα.
After the indicated culture period the cells were washed once in PBS and lysed in ice cold lysis buffer. Whole cell lysates were boiled at 93° C. for 5 minutes in equal volumes of loading buffer (0.5M Tris-HCl pH 6.8, 2% SDS, 0, 05% bromphenolblue, 20% 2-mercaptoethanol, 10% Glycerol).
All samples were subjected to 12% sodium dodecylsulfate-PAGE, separated by electrophoresis and transferred to a polyvinylidene difluoride membrane (PVDF). After blocking for 2 h in Tris-buffered saline (TBS) containing 5% non-fat dry milk, the membranes were incubated with primary antibody (rabbit-anti-collagen I (Rockland, Gilbertsville Pa.); anti αSMA (rabbit-anti-aSMA (Abcam, Cambridge, Mass.); anti vimentin (Santa Cruz); anti CCR6: CKR6/C20, Santa Cruz) diluted 1:700 with TBS at 4° C. overnight. Visualization was performed using appropriate secondary antibodies labeled with IRDye 800CW or IRDye 700CW (Li-COR Bioscience, Bad Homburg, Germany) diluted 1:10 000-1:20000 for 2 h and scanned using Odyssey system (Li-COR Biosience) according to the manufactures instructions.

[4] = system: RLE-6TN; assay: EMT of rat alveolar epithelial cell line RLE-6TN; assay type: cell-based; settings: for differentiation into fibroblast-like cells (EMT, morphology): culture period 6 days
[5] = molecular target: T1, CCR6; assay: αSMA induction in RLE-6TN transiently transfected with human CCR6; assay type: cell-based, rat; parameters: expressed in transfected cells; host or cells: RLE-6TN (rat alveolar epithelial cell line), transient transfection
Description: In contrast, all stimulations induced the expression of CD90 (FIGS. 9B and C) although CD90 expression was more intense using CCL18. […] The cells were therefore transiently transfected with a commercially available plasmid containing a DNA sequence coding for human CCR6.

[6] = system: human primary AECII; assay: EMT of human primary alveolar epithelial cells type II; assay type: cell-based
Experimental: as §1
AECII were isolated as described previously (2). In brief, macroscopically tumor-free lung tissue was first sliced and slices were washed three times at 4° C. in phosphate-buffered saline (PBS) and then digested in sterile dispase solution (2.5 mg dispase II (Invitrogen GmbH, Karlsruhe, Germany) ml and 50 μg/ml DNase I (Roche Diagnostics, Mannheim, Germany)) at 37° C. for 60 minutes. After dispase digestion, the slices were thoroughly pipetted for several minutes using a 10 ml pipette with a wide inlet. Crude tissue and cell suspensions were filtered through nylon gauze with meshes of 50 and 20 μm. The cell suspension was then layered onto a density gradient solution (PAN Biotech GmbH, Aidenbach, Germany) and centrifuged at 800×g for 20 min.
The cells from interphase were washed and incubated in 100 mm Petri dishes (max. 6×10^7 cells/dish) in RPMI (Invitrogen, Karlsruhe, Germany) with 10% fetal calf serum (FCS) (PAA Laboratories GmbH, Colbe, Germany) and 1% penicillin/streptomycin (Biochrom AG, Berlin, Germany) at 37° C. in humidified incubator (5% CO2, 37° C.) for 15, 20 and if possible 30 minutes to remove adherent (mostly alveolar macrophages, monocytes and fibroblasts) from non-adherent cells. […]

[7] = system: A549; assay: EMT induction by CCL18 in adenocarcinoma cell line A549; assay type: cell-based, human
Experimental: Cells of the adenocarcinoma cell line A549 were seeded in 6-well plates and allowed to adhere over night. After adherence the cells were stimulated with the indicated amount of CCL18. TGFβ was used as a positive control. […]

[8] = molecular target: T1, CCR6; assay: CCL18-induced FGF2 release by lung fibroblasts (FGF2 ELISA); assay type: cell-based; parameters: endogenous in cells; settings: CCL18 10 ng/ml, 24 h
Experimental: To estimate CCL18-induced FGF2 release fibroblasts were harvested, counted and seeded 300.000 cells per well in a 6-well cell culture plate in Quantum 333. Cells were allowed to attach over night and the medium was replaced with 1 ml of DMEM plus 10% FCS. Cells were either left un-stimulated or were stimulated with 10 ng/ml of human recombinant CCL18. To block CCR6/CCL18 interaction a blocking antibody against CCR6 (R&D systems, Wiesbaden, FRG) or an irrelevant antibody (mouse anti human IgG, R&D Systems) was added to a final concentration of 20 μg/ml in parallel cultures. After 24 h of culture the supernatant was harvested and stored at −80° C. until FGF2 determination.

[9] = molecular target: T1, CCR6; assay: CCL18-induced collagen I and αSMA mRNA expression in human lung fibroblast lines (real-time PCR); assay type: cell-based; parameters: endogenous in cells; settings: four human lung fibroblast cell lines
Experimental: as §1
After the indicated culture period total RNA was extracted using TRIzol Reagent according to the manufacturer's protocol (Invitrogen, Karlsruhe, Germany). Total RNA was reverse-transcribed with StrataScript RT (Stratagene, Santa Clara, Calif.) using oligo (dT)12-18 primer to produce cDNA according to the manufacturer's protocol. Specific primers for human CCR6, collagen type I, alpha-smooth muscle actin and GAPDH were designed using Primer3 software (Whitehead Institute for Biomedical Research, Cambridge, USA; http://frodo.wi.mit.edu/cgi-bin/primer3/primer3_www.cgi), Amplify1.2 software (University of Wisconsin, USA; http://engels.genetics.wisc.edu/amplify) using LocusLink and GenBank databases (National Center for Biotechnology Information; http://www.ncbi.nlm.nih.gov/LocusLink/index.html). Accession code numbers for the nucleotide sequences used to generate the respective primers and the primer sequences are depicted in FIG. 17.
All primers were intron-spanning and synthesized by MWG-Biotech (MWG-Biotech AG, Germany). […] A threshold cycle value (Ct) was calculated and used to compute the relative level of specific mRNA by the following formula: “relative expression=2^(Ct GAPDH-Ct CCL18)×10,000” for each cDNA sample.

[10] = sera with low and medium sCCR6 concentrations
[11] = serum with high sCCR6 concentration

Molecule: CCL20: Chemokine ligand 20, CCR6 ligand (PeproTech) [reference compound]
sCCR6 detection by ELISA after ligand addition [1, 10]: nearly abolishes CCR6 detection; also recorded: totally blocked
reduction of sCCR6 ELISA signal [1, 11]: 14%
sCCR6 detection by ELISA after ligand addition [1, 11]: reduced by one third

CCL18 induced down-regulation of CCR6 expression in presence of inhibitor ([2]; 20 minutes, listed as PS-AU-1015): this down-regulation does not occur
effect of inhibitor only on CCR6 expression ([2]; inhibitor 100 ng/ml without CCL18, 20 minutes): no effect
Molecule: PS-AU-105: inhibitor peptide, polypeptide according to SEQ ID NO.: 9, binds to and inhibits CCR6 receptor (EDCCLVYTSWQIHPKFIVDYSETSPQCPK; peptide inhibitor of CCR6)
CCL18 induced down-regulation of CCR6 expression in presence of inhibitor ([2]; 20 minutes): diminished; also recorded: fails to down-regulate the CCR6+ sub-population

Molecule: TGFβ: cytokine stimulus used as positive control for EMT [reference compound]
vimentin expression (Western Blot) [3]: failed to induce the expression of vimentin
αSMA expression (Western Blot) [3]: strong expression of αSMA
differentiation into fibroblast-like cells (EMT, morphology) [4]: undergoes epithelial-mesenchymal transition (EMT); also recorded: more pronounced
αSMA expression (fluorescence microscopy) ([4]; day 6): induces αSMA expression
αSMA expression in CCR6 transfected versus mock transfected cells [5]: induced αSMA expression in both cell types; also recorded: induce αSMA expression in both cell lines

B1: CCL18: human recombinant CCL18, chemokine ligand 18, ligand/agonist of CCR6 receptor (protein)
chain: AQVGTNKELCCLVYTSWQIPQKFIVDYSETSPQCPKPGVILLTKRGRQICADPNKKWVQKYISDLKLNA
sCCR6 detection by ELISA after ligand addition [1, 10]: nearly abolishes CCR6 detection; also recorded: totally blocked
reduction of sCCR6 ELISA signal [1, 11]: 36%
sCCR6 detection by ELISA after ligand addition [1, 11]: reduced by one third
vimentin expression (Western Blot) [3]: expression of vimentin
αSMA expression (Western Blot) [3]: Only a faint expression of αSMA
αSMA and vimentin expression (Western blot) ([6]; 12 days): strongly up-regulates both molecules
induction of EMT ([6]; CCL18 with or without TNFα): induces EMT
FSP1 mRNA expression (qPCR) ([7]; 72 h): marked and dose dependent up-regulation; also recorded: up-regulation of FSP1 expression
snail expression (western blot) ([7]; 72 h): induces dose-dependently the expression; also recorded: induces snail expression
E-cadherin expression (qPCR) ([7]; b569: after 24 h, b77: after 72 h): substantially down-regulated; also recorded: down-regulation of E-cadherin expression
differentiation into fibroblast-like cells (EMT, morphology) [4]: undergoes epithelial-mesenchymal transition (EMT); also recorded: induces a differentiation into spindle-shaped, fibroblast-like cells
CD90 expression (immuno-fluorescence) ([4]; day 6): more intense
αSMA expression (fluorescence microscopy) ([4]; day 6): did not
FGF2 release on CCL18 stimulation ([8]; fibroblasts from fibrotic lungs): significant up-regulation; also recorded: further up-regulated
FGF2 release on CCL18 stimulation ([8]; fibroblasts from non-fibrotic lungs): only marginal; also recorded: only marginally
collagen I mRNA expression induced [9]: three out of four; also recorded: up-regulates collagen I expression in three of four cell lines
CCR6 surface expression after incubation with CCL18 ([2]; CCL18 10 ng/ml, 20 minutes): decrease in the percentage of CCR6^+ cells; also recorded: marked down-regulation; also recorded: diminishes the peak markedly
αSMA expression in CCR6 transfected versus mock transfected cells [5]: induced αSMA in CCR6 transfected cells, but not in mock transfected cells; also recorded: found in CCR6 transfected RLE-6TN but not in mock-transfected cells
